Data: US20100267638A1, “EXOSITE-DIRECTED THROMBIN INHIBITORS” (CLEVELAND STATE UNIVERSITY, priority 2003, published 2010)
No end group written: not given here. *: point of attachment. SO3 = O=S(=O)(O)*

Assays:
[1] = Clotting time as a function of peptide concentration (FIG. 12); details: peptide 500 nM
Text: FIG. 12 is a graph illustrating clotting time as a function of concentration of various peptides of interest as follows: DYDYQ (SEQ ID NO. 11) (filled squares); DYDYQ (1, 2) (or as designated in shorthand form, D5Q1,2) (SEQ ID NO. 9) (filled triangles); DYDYQ-1 (SEQ ID NO. 7) (filled inverted triangles); and DYDYQ-2 (SEQ ID NO. 8) (filled diamonds).

intrinsic tenase = intrinsic tenase (Homo sapiens, UniProt P00451+P00740); test: Inhibition of intrinsic tenase; format: biochemical; details: FIG. 11A
Text: FIG. 11A illustrates inhibition of intrinsic tenase by the double sulfonated peptide DYDYQ (1, 2) (SEQ ID NO. 9). […] As is shown in FIG. 11A, as the concentration of DYDYQ (1, 2) is increased, the reduction in activity is dramatic.
FIG. 11B and its insert panel illustrate the effect of increasing concentration of the peptide DYDYQ (1, 2) (SEQ ID NO. 9) upon the reaction kinetics of intrinsic tenase. Specifically, this figure illustrates the kinetics of inhibition of intrinsic tenase in the presence of the double sulfonated peptide DYDYQ (1, 2). In FIG. 11B, the data are plotted as Vo (initial velocity in arbitrary units) as a function of increasing factor X concentration in the presence of increasing concentration of DYDYQ (1, 2). The concentrations of DYDYDQ (1, 2), in addition with factor VIIIa, are 10 nM (filled triangles), 25 nM (filled diamonds), and 50 nM (filled circles). Control curves of factors VIIIa and IXa (filled squares) and factor IXa (inverted triangles) are also noted. The insert panel of FIG. 11B is presented for greater clarity and details the region of factor X concentration up to 300 nM, and without the curve of 50 nM of DYDYQ (1, 2).

thrombin [2] = biological target: T1, thrombin (Homo sapiens, UniProt P00734); test: Activation of plasma factor V by thrombin preincubated with peptide (SDS-PAGE, immunoblotting); format: biochemical; design: Factor Xa cleaves prothrombin to form thrombin; purchased Haematologic Technologies Inc. (Essex Junction, Vt.); details: FIG. 9B
Method: Gel Electrophoresis and western blotting. Sodium dodecyl sulfate polyacrylamide gel electrophoresis (SDS-PAGE) analyses were performed using 4-12% gradient gels according to the method of Laemmli. In several experiments, proteins were transferred to polyvinylidene difluoride (PVDF) membranes according to the method described by Towbin et al. After transfer to nitrocellulose, factor V heavy and light chain(s) were detected using the appropriate monoclonal and polyclonal antibodies. Immunoreactive fragments were visualized with chemiluminescence.
Factor V (250 nM) was incubated with thrombin (1 nM). And FIG. 4B illustrates thrombin (1 nM) was preincubated with 100 μM peptide DYDYQ and the mixture was added to factor V (250 nM). […] Fragments were identified following staining with monoclonal antibody αHFV#17 that recognizes an epitope between amino acid residues 307-506 of factor V and chemiluminescence as described. Lane 1 in both panels depicts aliquots of the mixture withdrawn from the reaction before the addition of thrombin or thrombin/peptide mixture while lanes 2-7 show aliquots of the reaction mixture withdrawn at 30 sec, 1 min, 3 min, 5 min, 10 min, 15 min following the addition of thrombin alone or of thrombin/peptide mixture. The time of incubation is shown at the bottom of the figure. Position of the molecular weight markers is indicated at left.

prothrombinase = biological target: T2, prothrombinase (Homo sapiens, UniProt P00734); test: Assay measuring thrombin formation (prothrombinase inhibition by peptides, DAPA fluorescence); format: biochemical
T2 construct: purchased Haematologic Technologies Inc. (Essex Junction, Vt.)
Method: Assay measuring thrombin formation. The formation of thrombin was analyzed using the fluorescent thrombin inhibitor DAPA as described using a Perkin Elmer LS-50B Luminescence Spectrometer (Perkin-Elmer LLC, Norwalk Conn.) with λex=280 nm, λem=550 nm and a 500 nm long pass filter in the emission beam (Schott KV-500). […] In all cases peptides were preincubated with factor tor Va prior to the assay as described in the legend to the figures. The final concentration of factor tor Va in the mixture was 4 nM with factor Xa at 10 nM, prothrombin at 350 nM, DAPA at 700 nM, in the presence of PCPS vesicles (10 μM). The initial rate of thrombin formation (nM IIa·min^−1) was calculated as described during the initial 5-10 sec of the reaction. To verify if the peptides have any effect on the active-site of thrombin, control experiments were performed as follows: a given peptide (at 100 μM) was incubated in the assay buffer containing DAPA (700 nM); the base line was monitored for 30 sec; thrombin (350 nM) was then added to the mixture and the fluorescent intensity resulting from the complexation of DAPA with the active site of thrombin was monitored for 60 sec. The slope of the reaction measuring thrombin formation in the presence of a given peptide during the first 5 sec was calculated and compared to the slope of a reaction obtained in the absence of peptide. It is noteworthy that under the conditions employed the thrombin-DAPA interaction occurred fast and the calculated slope of the reaction was sensitive to all parameters used. […] All experiments were performed in triplicates or as indicated. The concentration of each peptide given in the figures and figure legends is their final concentration in the assay. […] In some cases the data were also analyzed and plotted using DeltaGraph (DeltaPoint, Monterey, Calif.).
Specifically, peptides were incubated with factor tor Va as described herein at a fixed concentration (100 μM). The percent of factor tor Va cofactor activity was calculated by comparing the activity of prothrombinase in the presence of a given peptide to the activity of prothrombinase determined in a control reaction in the absence of peptide and in the presence of factor Xa. […] The control peptide represents a pentadecapeptide from the middle portion of factor tor Va heavy chain (P15H) (SEQ ID NO. 22). […] All other peptides from region 680-709 had no significant effect on prothrombinase activity.
HC3 represents amino acid sequence 690-699 of factor tor Va heavy chain; HC4 contains the sequence 695-704 of human factor tor Va heavy chain; P15H represents amino acid sequence 337-351 from the middle portion of human factor tor Va heavy chain. […] The concentration of each peptide given on the x axis represents its final concentration in the prothrombinase mixture. […] Thus, both peptides show similar inhibitory potential.

thrombin [3] = biological target: T1, thrombin; test: Inhibition of activation of factor VIII by thrombin (SDS-PAGE); format: biochemical; design: Factor Xa cleaves prothrombin to form thrombin; details: FIG. 9A
Text: Specifically, FIG. 9A illustrates the inhibition of activation of factor VIII by thrombin, the inhibition resulting from the double sulfonated peptide DYDYQ (1, 2) (SEQ ID NO. 9) binding to thrombin. FIG. 9B illustrates the inhibition of activation of factor V by thrombin, the inhibition resulting from the double sulfonated peptide DYDYQ (1, 2) (SEQ ID NO. 9) binding to thrombin. FIGS. 9A and 9B result from analysis by SDS-PAGE as previously described with regard to FIG. 4(A and B). […] The various fragments of each factor are noted on the right hand side of each figure.

intrinsic tenase, sequence (P00740 227-461 limits assumed): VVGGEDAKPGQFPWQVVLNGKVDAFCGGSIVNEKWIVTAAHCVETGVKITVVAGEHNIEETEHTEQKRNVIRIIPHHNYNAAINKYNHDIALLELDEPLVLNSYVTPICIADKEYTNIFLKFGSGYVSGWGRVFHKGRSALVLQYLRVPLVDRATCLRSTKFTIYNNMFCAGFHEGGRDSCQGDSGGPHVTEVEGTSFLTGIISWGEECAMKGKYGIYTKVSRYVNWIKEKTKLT
intrinsic tenase, sequence (P00451 1709-2351 limits assumed): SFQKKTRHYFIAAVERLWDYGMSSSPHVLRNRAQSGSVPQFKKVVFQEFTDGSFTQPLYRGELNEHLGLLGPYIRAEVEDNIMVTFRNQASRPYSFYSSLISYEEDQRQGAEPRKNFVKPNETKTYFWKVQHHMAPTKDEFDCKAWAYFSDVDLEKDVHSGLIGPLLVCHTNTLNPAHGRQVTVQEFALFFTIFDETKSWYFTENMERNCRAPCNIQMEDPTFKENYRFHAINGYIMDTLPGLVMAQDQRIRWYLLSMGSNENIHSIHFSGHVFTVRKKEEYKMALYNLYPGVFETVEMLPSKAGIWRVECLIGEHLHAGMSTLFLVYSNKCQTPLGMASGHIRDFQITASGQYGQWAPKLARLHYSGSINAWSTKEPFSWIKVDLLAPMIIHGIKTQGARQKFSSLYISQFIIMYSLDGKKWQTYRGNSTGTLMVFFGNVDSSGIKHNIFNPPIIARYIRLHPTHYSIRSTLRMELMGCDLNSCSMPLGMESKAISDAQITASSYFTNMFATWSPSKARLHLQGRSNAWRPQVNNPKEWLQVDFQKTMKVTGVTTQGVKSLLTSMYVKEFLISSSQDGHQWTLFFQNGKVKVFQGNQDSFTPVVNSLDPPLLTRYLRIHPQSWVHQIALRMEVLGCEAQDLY

Substance: DY(—SO3)DY(−SO3)Q (DY(SO3)DY(SO3)Q) [DYDYQ-1,2, double sulfonated peptide DYDYQ]
- clotting time [1]: relatively long clotting times
- rank of clotting time among peptides [1]: longest clotting time
- inhibition of intrinsic tenase (intrinsic tenase): dramatic reduction
- inhibition of activation of factor V by thrombin (thrombin [2]): potent inhibitor
- rank of inhibitory effect on prothrombinase among peptides (prothrombinase; FIG. 10A): greatest inhibitory effect
- inhibition of prothrombinase activity with increasing peptide (prothrombinase; FIG. 10A, up to 8000 nM): significant inhibitory effects
- type of inhibition of prothrombinase with respect to prothrombin (prothrombinase; kinetic analyses, increasing prothrombin and peptide): competitive inhibition mechanism
- inhibition of activation of factor VIII by thrombin (thrombin [3]): potent inhibitor
